Results on 18 molecules are retold here after US20250361268A1, “NOVEL ANTI-INFLAMMATORY PEPTIDE AND USE THEREOF” (NOVACELL TECHNOLOGY INC., priority 2022, published 2025).

In experiment [1] the target is T1, formyl peptide receptor 2 (FPR2) (UniProt P25090 1-351, limits assumed).
T1 sequence (looked up): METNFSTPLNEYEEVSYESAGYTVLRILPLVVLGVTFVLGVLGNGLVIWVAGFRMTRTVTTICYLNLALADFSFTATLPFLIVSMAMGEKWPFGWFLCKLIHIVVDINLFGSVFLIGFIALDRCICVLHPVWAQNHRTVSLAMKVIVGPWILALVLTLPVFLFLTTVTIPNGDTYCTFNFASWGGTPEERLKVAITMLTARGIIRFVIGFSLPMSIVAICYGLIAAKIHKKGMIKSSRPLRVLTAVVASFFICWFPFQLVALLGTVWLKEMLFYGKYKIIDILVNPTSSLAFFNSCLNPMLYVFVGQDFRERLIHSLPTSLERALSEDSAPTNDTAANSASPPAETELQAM
Nature of the experiment: cell-based or functional assay.

The next experiment addresses T2, FPR1 (UniProt P21462 1-350, limits assumed).
T2 sequence (looked up): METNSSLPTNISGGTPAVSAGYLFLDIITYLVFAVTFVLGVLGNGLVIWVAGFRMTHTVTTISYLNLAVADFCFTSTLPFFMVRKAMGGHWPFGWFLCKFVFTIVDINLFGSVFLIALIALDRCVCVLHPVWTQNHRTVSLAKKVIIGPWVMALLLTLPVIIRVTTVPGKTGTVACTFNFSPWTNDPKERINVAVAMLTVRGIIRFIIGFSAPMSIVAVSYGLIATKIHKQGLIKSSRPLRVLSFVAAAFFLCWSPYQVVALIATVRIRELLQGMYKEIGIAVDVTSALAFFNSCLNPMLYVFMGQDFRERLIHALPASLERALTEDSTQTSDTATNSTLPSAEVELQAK
Nature of the experiment: cell-based or functional assay.

B1: peptide of SEQ ID NO 1 (peptide)
peptide: RWRYKVM
HELM: PEPTIDE1{R.W.R.Y.K.V.[dM].[am]}$$$$V2.0; N-terminus assumed
SMILES: CSCC[C@@H](NC(=O)[C@@H](NC(=O)[C@H](CCCCN)NC(=O)[C@H](Cc1ccc(O)cc1)NC(=O)[C@H](CCCNC(=N)N)NC(=O)[C@H](Cc1c[nH]c2ccccc12)NC(=O)[C@@H](N)CCCNC(=N)N)C(C)C)C(N)=O
Turning to B1, the “EC50 for [Ca2+]” value is less than 0.01 µM in experiment [1] and greater than 10 µM with FPR1.

B2: peptide of SEQ ID NO 55 (peptide)
peptide: MRYKPM
HELM: PEPTIDE1{[ac].M.R.Y.K.P.[dM].[am]}$$$$V2.0
SMILES: CSCC[C@H](NC(C)=O)C(=O)N[C@@H](CCCNC(=N)N)C(=O)N[C@@H](Cc1ccc(O)cc1)C(=O)N[C@@H](CCCCN)C(=O)N1CCC[C@H]1C(=O)N[C@H](CCSC)C(N)=O
Consider B2, for which the “EC50 for [Ca2+]” value in experiment [1] was less than 0.01 µM; in the experiment with FPR1, greater than 10 µM.

B3: peptide of SEQ ID NO 51 (peptide)
peptide: RMRYKPM
HELM: PEPTIDE1{[ac].R.M.R.Y.K.P.[dM].[am]}$$$$V2.0
SMILES: CSCC[C@H](NC(=O)[C@H](CCCNC(=N)N)NC(C)=O)C(=O)N[C@@H](CCCNC(=N)N)C(=O)N[C@@H](Cc1ccc(O)cc1)C(=O)N[C@@H](CCCCN)C(=O)N1CCC[C@H]1C(=O)N[C@H](CCSC)C(N)=O
As for B3, the “EC50 for [Ca2+]” value was less than 0.01 µM in experiment [1] and greater than 10 µM with FPR1.

B4: peptide of SEQ ID NO 45 (peptide)
peptide: HMRYKYM
HELM: PEPTIDE1{[CCCC(=O)[*:2]].H.M.R.Y.K.Y.[dM].[am]}$$$$V2.0
SMILES: CCCC(=O)N[C@@H](Cc1c[nH]cn1)C(=O)N[C@@H](CCSC)C(=O)N[C@@H](CCCNC(=N)N)C(=O)N[C@@H](Cc1ccc(O)cc1)C(=O)N[C@@H](CCCCN)C(=O)N[C@@H](Cc1ccc(O)cc1)C(=O)N[C@H](CCSC)C(N)=O
For the molecule B4, the “EC50 for [Ca2+]” value is less than 0.01 µM in experiment [1] and greater than 10 µM with FPR1.

B5: peptide of SEQ ID NO 56 (peptide)
peptide: MRYKPM
HELM: PEPTIDE1{[CCCC(=O)[*:2]].M.R.Y.K.P.[dM].[am]}$$$$V2.0
SMILES: CCCC(=O)N[C@@H](CCSC)C(=O)N[C@@H](CCCNC(=N)N)C(=O)N[C@@H](Cc1ccc(O)cc1)C(=O)N[C@@H](CCCCN)C(=O)N1CCC[C@H]1C(=O)N[C@H](CCSC)C(N)=O
Regarding B5, the “EC50 for [Ca2+]” value is less than 0.01 µM in experiment [1] and greater than 10 µM with FPR1.

B6: peptide of SEQ ID NO 47 (peptide)
peptide: PMRYKYM
HELM: PEPTIDE1{[CCCC(=O)[*:2]].P.M.R.Y.K.Y.[dM].[am]}$$$$V2.0
SMILES: CCCC(=O)N1CCC[C@H]1C(=O)N[C@@H](CCSC)C(=O)N[C@@H](CCCNC(=N)N)C(=O)N[C@@H](Cc1ccc(O)cc1)C(=O)N[C@@H](CCCCN)C(=O)N[C@@H](Cc1ccc(O)cc1)C(=O)N[C@H](CCSC)C(N)=O
For B6, the “EC50 for [Ca2+]” value is less than 0.01 µM in experiment [1] and greater than 10 µM with FPR1.

B7: peptide of SEQ ID NO 52 (peptide)
peptide: RMRYKPM
HELM: PEPTIDE1{[CCCC(=O)[*:2]].R.M.R.Y.K.P.[dM].[am]}$$$$V2.0
SMILES: CCCC(=O)N[C@@H](CCCNC(=N)N)C(=O)N[C@@H](CCSC)C(=O)N[C@@H](CCCNC(=N)N)C(=O)N[C@@H](Cc1ccc(O)cc1)C(=O)N[C@@H](CCCCN)C(=O)N1CCC[C@H]1C(=O)N[C@H](CCSC)C(N)=O
Regarding B7, the “EC50 for [Ca2+]” value in experiment [1] was less than 0.01 µM; in the experiment with FPR1, greater than 10 µM.

B8: peptide of SEQ ID NO 46 (peptide)
peptide: PMRYKYM
HELM: PEPTIDE1{P.M.R.Y.K.Y.[dM].[am]}$$$$V2.0; N-terminus assumed
SMILES: CSCC[C@H](NC(=O)[C@@H]1CCCN1)C(=O)N[C@@H](CCCNC(=N)N)C(=O)N[C@@H](Cc1ccc(O)cc1)C(=O)N[C@@H](CCCCN)C(=O)N[C@@H](Cc1ccc(O)cc1)C(=O)N[C@H](CCSC)C(N)=O
As for B8, the “EC50 for [Ca2+]” value in experiment [1] was less than 0.01 µM; in the experiment with FPR1 it was greater than 10 µM.

B9: peptide of SEQ ID NO 57 (peptide)
peptide: MRYKPM
HELM: PEPTIDE1{[CCCCCCCC(=O)[*:2]].M.R.Y.K.P.[dM].[am]}$$$$V2.0
SMILES: CCCCCCCC(=O)N[C@@H](CCSC)C(=O)N[C@@H](CCCNC(=N)N)C(=O)N[C@@H](Cc1ccc(O)cc1)C(=O)N[C@@H](CCCCN)C(=O)N1CCC[C@H]1C(=O)N[C@H](CCSC)C(N)=O
For B9, the “EC50 for [Ca2+]” value in experiment [1] was less than 0.01 µM; in the experiment with FPR1 it was greater than 10 µM.

B10: peptide of SEQ ID NO 59 (peptide)
peptide: HMRYKPM
HELM: PEPTIDE1{[ac].H.M.R.Y.K.P.[dM].[am]}$$$$V2.0
SMILES: CSCC[C@H](NC(=O)[C@H](Cc1c[nH]cn1)NC(C)=O)C(=O)N[C@@H](CCCNC(=N)N)C(=O)N[C@@H](Cc1ccc(O)cc1)C(=O)N[C@@H](CCCCN)C(=O)N1CCC[C@H]1C(=O)N[C@H](CCSC)C(N)=O
As for B10, the “EC50 for [Ca2+]” value in experiment [1] is less than 0.01 µM; in the experiment with FPR1, greater than 10 µM.

B11: peptide of SEQ ID NO 50 (peptide)
peptide: RMRYKPM
HELM: PEPTIDE1{R.M.R.Y.K.P.[dM].[am]}$$$$V2.0; N-terminus assumed
SMILES: CSCC[C@H](NC(=O)[C@@H](N)CCCNC(=N)N)C(=O)N[C@@H](CCCNC(=N)N)C(=O)N[C@@H](Cc1ccc(O)cc1)C(=O)N[C@@H](CCCCN)C(=O)N1CCC[C@H]1C(=O)N[C@H](CCSC)C(N)=O
As to B11, the “EC50 for [Ca2+]” value was less than 0.01 µM in experiment [1] and greater than 10 µM in the experiment with FPR1.

B12: peptide of SEQ ID NO 53 (peptide)
peptide: RMRYKPM
HELM: PEPTIDE1{[CCCCCCCC(=O)[*:2]].R.M.R.Y.K.P.[dM].[am]}$$$$V2.0
SMILES: CCCCCCCC(=O)N[C@@H](CCCNC(=N)N)C(=O)N[C@@H](CCSC)C(=O)N[C@@H](CCCNC(=N)N)C(=O)N[C@@H](Cc1ccc(O)cc1)C(=O)N[C@@H](CCCCN)C(=O)N1CCC[C@H]1C(=O)N[C@H](CCSC)C(N)=O
For the molecule B12, the results for the “EC50 for [Ca2+]” value (in experiment [1]; with FPR1) were less than 0.01 µM and greater than 10 µM, respectively.

B13: peptide of SEQ ID NO 60 (peptide)
peptide: HMRYKPM
HELM: PEPTIDE1{[CCCC(=O)[*:2]].H.M.R.Y.K.P.[dM].[am]}$$$$V2.0
SMILES: CCCC(=O)N[C@@H](Cc1c[nH]cn1)C(=O)N[C@@H](CCSC)C(=O)N[C@@H](CCCNC(=N)N)C(=O)N[C@@H](Cc1ccc(O)cc1)C(=O)N[C@@H](CCCCN)C(=O)N1CCC[C@H]1C(=O)N[C@H](CCSC)C(N)=O
In the case of B13, the “EC50 for [Ca2+]” value was less than 0.01 µM in experiment [1] and greater than 10 µM with FPR1.

B14: peptide of SEQ ID NO 6 (peptide)
peptide: RMRYKVM
HELM: PEPTIDE1{[ac].R.M.R.Y.K.V.[dM].[am]}$$$$V2.0
SMILES: CSCC[C@H](NC(=O)[C@H](CCCNC(=N)N)NC(C)=O)C(=O)N[C@@H](CCCNC(=N)N)C(=O)N[C@@H](Cc1ccc(O)cc1)C(=O)N[C@@H](CCCCN)C(=O)N[C@H](C(=O)N[C@H](CCSC)C(N)=O)C(C)C
Consider B14, for which the “EC50 for [Ca2+]” value was less than 0.01 µM in experiment [1] and greater than 10 µM with FPR1.

B15: peptide of SEQ ID NO 54 (peptide)
peptide: MRYKPM
HELM: PEPTIDE1{M.R.Y.K.P.[dM].[am]}$$$$V2.0; N-terminus assumed
SMILES: CSCC[C@H](N)C(=O)N[C@@H](CCCNC(=N)N)C(=O)N[C@@H](Cc1ccc(O)cc1)C(=O)N[C@@H](CCCCN)C(=O)N1CCC[C@H]1C(=O)N[C@H](CCSC)C(N)=O
Turning to B15, the “EC50 for [Ca2+]” value in experiment [1] was less than 0.01 µM; with FPR1, greater than 10 µM.

B16: peptide of SEQ ID NO 4 (peptide)
peptide: KWKYKVM
HELM: PEPTIDE1{[ac].K.W.K.Y.K.V.[dM].[am]}$$$$V2.0
SMILES: CSCC[C@@H](NC(=O)[C@@H](NC(=O)[C@H](CCCCN)NC(=O)[C@H](Cc1ccc(O)cc1)NC(=O)[C@H](CCCCN)NC(=O)[C@H](Cc1c[nH]c2ccccc12)NC(=O)[C@H](CCCCN)NC(C)=O)C(C)C)C(N)=O
On to B16, for which the figures for the “EC50 for [Ca2+]” value (in experiment [1]; in the experiment with FPR1) were less than 0.01 µM and greater than 10 µM, respectively.

B17: peptide of SEQ ID NO 5 (peptide)
peptide: RMRYKVM
HELM: PEPTIDE1{R.M.R.Y.K.V.[dM].[am]}$$$$V2.0; N-terminus assumed
SMILES: CSCC[C@H](NC(=O)[C@@H](N)CCCNC(=N)N)C(=O)N[C@@H](CCCNC(=N)N)C(=O)N[C@@H](Cc1ccc(O)cc1)C(=O)N[C@@H](CCCCN)C(=O)N[C@H](C(=O)N[C@H](CCSC)C(N)=O)C(C)C
Turning to B17, the “EC50 for [Ca2+]” value in experiment [1] was less than 0.01 µM; with FPR1, greater than 10 µM.

B18: peptide of SEQ ID NO 58 (peptide)
peptide: HMRYKPM
HELM: PEPTIDE1{H.M.R.Y.K.P.[dM].[am]}$$$$V2.0; N-terminus assumed
SMILES: CSCC[C@H](NC(=O)[C@@H](N)Cc1c[nH]cn1)C(=O)N[C@@H](CCCNC(=N)N)C(=O)N[C@@H](Cc1ccc(O)cc1)C(=O)N[C@@H](CCCCN)C(=O)N1CCC[C@H]1C(=O)N[C@H](CCSC)C(N)=O
Consider B18, for which the “EC50 for [Ca2+]” value in experiment [1] is less than 0.01 µM; in the experiment with FPR1 it was greater than 10 µM.
